Data published in patent US20240182536A1 (MURAL ONCOLOGY, published 2024).

T1: IL-18 receptor (IL-18Rα and IL-18Rβ) (UniProt Q13478 19-541; O95256 20-599, limits assumed)
T1 sequence (looked up) 1: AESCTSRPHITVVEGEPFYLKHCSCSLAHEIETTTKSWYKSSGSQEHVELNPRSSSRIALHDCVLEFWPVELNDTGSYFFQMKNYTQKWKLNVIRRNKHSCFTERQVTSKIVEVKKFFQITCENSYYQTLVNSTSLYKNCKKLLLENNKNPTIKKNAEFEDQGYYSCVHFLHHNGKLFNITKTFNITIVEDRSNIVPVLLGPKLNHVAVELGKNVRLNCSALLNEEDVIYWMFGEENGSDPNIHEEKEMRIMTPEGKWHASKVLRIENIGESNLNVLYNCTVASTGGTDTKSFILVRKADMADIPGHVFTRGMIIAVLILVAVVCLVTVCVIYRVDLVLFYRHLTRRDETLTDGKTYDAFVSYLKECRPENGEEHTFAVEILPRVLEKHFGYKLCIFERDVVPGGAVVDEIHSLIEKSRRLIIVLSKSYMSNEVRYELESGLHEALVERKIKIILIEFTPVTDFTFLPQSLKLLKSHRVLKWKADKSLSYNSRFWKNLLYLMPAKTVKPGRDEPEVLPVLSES
T1 sequence (looked up) 2: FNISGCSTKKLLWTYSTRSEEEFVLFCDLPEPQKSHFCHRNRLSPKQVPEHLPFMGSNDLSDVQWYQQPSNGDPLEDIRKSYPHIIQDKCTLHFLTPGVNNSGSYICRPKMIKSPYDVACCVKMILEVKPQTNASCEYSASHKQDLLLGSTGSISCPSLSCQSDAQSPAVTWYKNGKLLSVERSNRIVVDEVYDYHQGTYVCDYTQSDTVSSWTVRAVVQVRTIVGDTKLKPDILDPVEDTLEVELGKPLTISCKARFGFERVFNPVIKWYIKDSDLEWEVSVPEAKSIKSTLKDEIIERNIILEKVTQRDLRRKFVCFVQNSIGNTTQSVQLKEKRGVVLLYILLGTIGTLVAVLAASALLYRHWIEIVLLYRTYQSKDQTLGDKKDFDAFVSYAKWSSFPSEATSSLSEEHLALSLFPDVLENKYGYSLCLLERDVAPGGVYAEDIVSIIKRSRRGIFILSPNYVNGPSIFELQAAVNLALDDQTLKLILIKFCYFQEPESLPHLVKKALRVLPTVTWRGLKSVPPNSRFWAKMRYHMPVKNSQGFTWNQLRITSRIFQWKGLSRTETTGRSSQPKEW

T2: human IL-18 binding protein (human, UniProt O95998 31-194)
T2 sequence (looked up): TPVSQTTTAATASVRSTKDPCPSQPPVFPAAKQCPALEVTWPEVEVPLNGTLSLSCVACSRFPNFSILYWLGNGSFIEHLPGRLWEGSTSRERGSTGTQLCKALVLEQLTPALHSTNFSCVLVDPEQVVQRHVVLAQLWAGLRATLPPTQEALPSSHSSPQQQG

T3: IL-18 receptors on HEK-Blue IL-18 reporter cells (UniProt Q13478 19-541; O95256 20-599, limits assumed)
T3 sequence (looked up) 1: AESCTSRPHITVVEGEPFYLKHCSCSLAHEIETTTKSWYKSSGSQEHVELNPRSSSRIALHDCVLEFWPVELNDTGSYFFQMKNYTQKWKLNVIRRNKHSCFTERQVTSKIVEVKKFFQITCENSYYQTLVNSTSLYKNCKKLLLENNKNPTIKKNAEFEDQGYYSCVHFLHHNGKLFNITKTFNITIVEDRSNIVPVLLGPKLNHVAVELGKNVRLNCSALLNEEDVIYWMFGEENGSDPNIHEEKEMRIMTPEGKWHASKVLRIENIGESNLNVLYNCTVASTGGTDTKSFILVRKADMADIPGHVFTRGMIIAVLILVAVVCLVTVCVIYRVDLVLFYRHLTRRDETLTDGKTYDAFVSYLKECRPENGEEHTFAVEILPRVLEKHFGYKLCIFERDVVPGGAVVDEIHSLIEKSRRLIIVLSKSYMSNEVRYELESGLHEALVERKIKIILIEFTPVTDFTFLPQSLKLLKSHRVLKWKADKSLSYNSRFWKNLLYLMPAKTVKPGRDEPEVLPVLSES
T3 sequence (looked up) 2: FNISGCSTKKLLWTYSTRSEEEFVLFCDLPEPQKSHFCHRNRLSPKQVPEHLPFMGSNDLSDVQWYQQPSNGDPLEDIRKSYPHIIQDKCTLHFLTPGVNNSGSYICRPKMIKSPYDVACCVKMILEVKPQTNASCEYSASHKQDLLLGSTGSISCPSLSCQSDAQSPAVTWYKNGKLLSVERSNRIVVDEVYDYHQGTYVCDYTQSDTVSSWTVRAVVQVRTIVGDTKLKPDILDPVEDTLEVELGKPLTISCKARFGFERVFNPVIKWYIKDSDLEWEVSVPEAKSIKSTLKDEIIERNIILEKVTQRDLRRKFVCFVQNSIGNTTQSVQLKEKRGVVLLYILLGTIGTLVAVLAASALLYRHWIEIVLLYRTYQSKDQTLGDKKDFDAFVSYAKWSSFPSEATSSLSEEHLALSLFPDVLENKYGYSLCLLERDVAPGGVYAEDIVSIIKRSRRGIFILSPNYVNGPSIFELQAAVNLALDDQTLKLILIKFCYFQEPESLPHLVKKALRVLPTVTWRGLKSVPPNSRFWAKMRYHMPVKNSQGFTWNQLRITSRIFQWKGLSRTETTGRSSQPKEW


Key:
Test in all cases: cell-based or functional assay
[1] = molecular target: T1, IL-18 receptor (IL-18Rα and IL-18Rβ)
[2] = molecular target: T2, human IL-18 binding protein
[3] = molecular target: T3, IL-18 receptors on HEK-Blue IL-18 …

| Binder | EC50 (pM), PBMC IFN gamma assay, average [1] [pM] | EC50 (pM), PBMC IFN gamma assay, run 1 [1] [pM] | EC50 (pM), PBMC IFN gamma assay, run 2 [1] [pM] | EC50 (pM), PBMC IFN gamma assay, run 3 [1] [pM] | PBMC IFN gamma EC50 relative to WT-IL18, average [1] | PBMC IFN gamma EC50 relative to WT-IL18, run 1 [1] | PBMC IFN gamma EC50 relative to WT-IL18, run 2 [1] | PBMC IFN gamma EC50 relative to WT-IL18, run 3 [1] | HEK-Blue activity, +100 nM BP, DF-10000 [2] | HEK-Blue activity, +100 nM BP, DF-100,000 [2] | HEK-Blue activity, +100 nM BP, DF-1,000,000 [2] | Ratio (-BP/+BP), DF-10000 [2] | Ratio (-BP/+BP), DF-100,000 [2] | Ratio (-BP/+BP), DF-1,000,000 [2] | HEK-Blue activity, No BP, DF-10000 [3] | HEK-Blue activity, No BP, DF-100,000 [3] | HEK-Blue activity, No BP, DF-1,000,000 [3] |
| --- | --- | --- | --- | --- | --- | --- | --- | --- | --- | --- | --- | --- | --- | --- | --- | --- | --- |
| hIL18 (G3V, E6K, K53A, M60K)- KiH (Fc fusion) YFVKLKSKLSVIRNLNDQVLFIDQGNRPLFEDMTDSDMRDNAPRTIFIISMYADSQPRGKAVTISVKSEKISTLSSENKIISFKEMNPPDNIKDTKSDIIFFQRSVPGHDNKMQFESSSYEGYFLASEKERDLFKLILKKEDELGDRSIMFTVQNED | 5.46 | 8.83 | 3.21 | 4.33 | 0.03 | 0.04 | 0.03 | 0.03 | – | – | – | – | – | – | – | – | – |
| yeast display IL-18 variant K53N, S55M, R104S, P107A (ligand) YFGKLESKLSVIRNLNDQVLFIDQGNRPLFEDMTDSDMRDNAPRTIFIISMYNDMQPRGMAVTISVKSEKISTLSSENKIISFKEMNPPDNIKDTKSDIIFFQSSVAGHDNKMQFESSSYEGYFLASEKERDLFKLILKKEDELGDRSIMFTVQNED | – | – | – | – | – | – | – | – | 0.15 | 0.12 | 0.11 | 5.37 | 1.93 | 1.08 | 0.8 | 0.24 | 0.12 |
| yeast display IL-18 variant T34I, S36V, D40I, N41M, K53G, S55Y (ligand) YFGKLESKLSVIRNLNDQVLFIDQGNRPLFEDMIDVDMRIMAPRTIFIISMYGDYQPRGMAVTISVKSEKISTLSSENKIISFKEMNPPDNIKDTKSDIIFFQRSVPGHDNKMQFESSSYEGYFLASEKERDLFKLILKKEDELGDRSIMFTVQNED | – | – | – | – | – | – | – | – | 0.21 | 0.1 | 0.09 | 1.46 | 1.11 | 1.52 | 0.3 | 0.11 | 0.14 |
| hIL18 (G3T, E6K, K53A, M60K) - KiH (Fc fusion) YFTKLKSKLSVIRNLNDQVLFIDQGNRPLFEDMTDSDMRDNAPRTIFIISMYADSQPRGKAVTISVKSEKISTLSSENKIISFKEMNPPDNIKDTKSDIIFFQRSVPGHDNKMQFESSSYEGYFLASEKERDLFKLILKKEDELGDRSIMFTVQNED | 16 | 13.3 | 14 | 20.7 | 0.11 | 0.06 | 0.13 | 0.13 | – | – | – | – | – | – | – | – | – |
| yeast display IL-18 variant K53S, S55F, R104K, H109Y (ligand) YFGKLESKLSVIRNLNDQVLFIDQGNRPLFEDMTDSDMRDNAPRTIFIISMYSDFQPRGMAVTISVKSEKISTLSSENKIISFKEMNPPDNIKDTKSDIIFFQKSVPGYDNKMQFESSSYEGYFLASEKERDLFKLILKKEDELGDRSIMFTVQNED | – | – | – | – | – | – | – | – | 0.14 | 0.09 | 0.09 | 3.08 | 1.18 | 0.95 | 0.43 | 0.11 | 0.09 |
| yeast display IL-18 variant K53Q, D54N, S55M, Q56H (ligand) YFGKLESKLSVIRNLNDQVLFIDQGNRPLFEDMTDSDMRDNAPRTIFIISMYQNMHPRGMAVTISVKSEKISTLSSENKIISFKEMNPPDNIKDTKSDIIFFQRSVPGHDNKMQFESSSYEGYFLASEKERDLFKLILKKEDELGDRSIMFTVQNED | – | – | – | – | – | – | – | – | 0.21 | 0.11 | 0.09 | 2.21 | 1.16 | 1.06 | 0.46 | 0.13 | 0.09 |
| yeast display IL-18 variant K53Y, S55G (ligand) YFGKLESKLSVIRNLNDQVLFIDQGNRPLFEDMTDSDMRDNAPRTIFIISMYYDGQPRGMAVTISVKSEKISTLSSENKIISFKEMNPPDNIKDTKSDIIFFQRSVPGHDNKMQFESSSYEGYFLASEKERDLFKLILKKEDELGDRSIMFTVQNED | – | – | – | – | – | – | – | – | 0.21 | 0.16 | 0.13 | 1.71 | 0.88 | 0.94 | 0.36 | 0.14 | 0.12 |
| yeast display IL-18 variant K53Y, S55Y (ligand) YFGKLESKLSVIRNLNDQVLFIDQGNRPLFEDMTDSDMRDNAPRTIFIISMYYDYQPRGMAVTISVKSEKISTLSSENKIISFKEMNPPDNIKDTKSDIIFFQRSVPGHDNKMQFESSSYEGYFLASEKERDLFKLILKKEDELGDRSIMFTVQNED | – | – | – | – | – | – | – | – | 0.24 | 0.14 | 0.21 | 1.57 | 1.21 | 0.57 | 0.38 | 0.17 | 0.12 |
| yeast display IL-18 variant L5W, S7Y, K53H, S55M (ligand) YFGKWEYKLSVIRNLNDQVLFIDQGNRPLFEDMTDSDMRDNAPRTIFIISMYHDMQPRGMAVTISVKSEKISTLSSENKIISFKEMNPPDNIKDTKSDIIFFQRSVPGHDNKMQFESSSYEGYFLASEKERDLFKLILKKEDELGDRSIMFTVQNED | – | – | – | – | – | – | – | – | 0.12 | 0.12 | 0.13 | 4.04 | 1.41 | 1.24 | 0.5 | 0.16 | 0.16 |
